Literature values as cited in article PMC4741374.

Experiments:
G-CSFR (Homo sapiens) = G-CSFR (Homo sapiens) (UniProt Q99062)
GM-CSFR (Homo sapiens) = GM-CSFR (Homo sapiens) (UniProt P15509)
Chain of UniProt P15509 (P15509 23-320, chain 1 of 2): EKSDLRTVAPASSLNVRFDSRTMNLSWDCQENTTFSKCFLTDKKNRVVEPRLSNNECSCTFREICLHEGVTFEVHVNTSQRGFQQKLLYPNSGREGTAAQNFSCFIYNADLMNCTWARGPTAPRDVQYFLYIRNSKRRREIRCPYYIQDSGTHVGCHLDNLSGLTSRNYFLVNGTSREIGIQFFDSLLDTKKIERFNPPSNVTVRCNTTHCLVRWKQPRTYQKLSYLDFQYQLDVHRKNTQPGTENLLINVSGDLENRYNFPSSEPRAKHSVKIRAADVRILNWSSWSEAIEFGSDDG
Chain of UniProt P15509 (P32927 17-443, chain 2 of 2, further chain): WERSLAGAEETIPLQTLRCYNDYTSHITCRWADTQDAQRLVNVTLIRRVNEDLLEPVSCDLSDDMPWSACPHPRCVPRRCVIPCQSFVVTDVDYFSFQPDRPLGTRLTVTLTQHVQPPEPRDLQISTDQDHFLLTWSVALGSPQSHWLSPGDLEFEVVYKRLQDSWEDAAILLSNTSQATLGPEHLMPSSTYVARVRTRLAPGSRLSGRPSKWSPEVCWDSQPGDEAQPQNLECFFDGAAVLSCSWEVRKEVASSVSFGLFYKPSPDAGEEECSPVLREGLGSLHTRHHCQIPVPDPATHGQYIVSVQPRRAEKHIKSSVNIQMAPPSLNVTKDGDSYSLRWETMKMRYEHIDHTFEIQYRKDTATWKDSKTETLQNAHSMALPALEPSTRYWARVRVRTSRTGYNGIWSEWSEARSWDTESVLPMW

Chain of UniProt Q99062 (Q99062 25-627): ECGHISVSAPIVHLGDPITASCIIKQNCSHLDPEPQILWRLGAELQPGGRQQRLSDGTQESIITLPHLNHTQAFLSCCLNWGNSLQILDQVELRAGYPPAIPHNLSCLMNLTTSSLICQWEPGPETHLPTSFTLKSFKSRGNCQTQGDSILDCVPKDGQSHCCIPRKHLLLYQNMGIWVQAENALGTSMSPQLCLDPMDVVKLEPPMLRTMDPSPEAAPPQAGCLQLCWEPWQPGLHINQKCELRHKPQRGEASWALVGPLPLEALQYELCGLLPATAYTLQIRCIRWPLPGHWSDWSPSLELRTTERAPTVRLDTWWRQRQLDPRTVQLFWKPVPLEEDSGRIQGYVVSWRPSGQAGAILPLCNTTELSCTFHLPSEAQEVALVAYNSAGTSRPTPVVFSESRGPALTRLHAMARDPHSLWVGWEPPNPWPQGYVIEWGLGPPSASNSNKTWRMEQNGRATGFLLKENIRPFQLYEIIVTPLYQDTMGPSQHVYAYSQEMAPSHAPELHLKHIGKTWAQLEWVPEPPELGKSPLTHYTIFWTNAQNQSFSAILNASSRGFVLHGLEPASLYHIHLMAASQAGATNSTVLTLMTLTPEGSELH

Substance | Kd (G-CSFR (Homo sapiens)) [nM] | Kd (GM-CSFR (Homo sapiens)) [nM]
G-CSF (from UniProt P09919) | 0.5 | 
GM-CSF (from UniProt P04141) |  | 0.1
